B1: Ras-related protein Rap-1A (Homo sapiens), P62834 (parent)
chain: MREYKLVVLGSGGVGKSALTVQFVQGIFVEKYDPTIEDSYRKQVEVDCQQCMLEILDTAGTEQFTAMRDLYMKNGQGFALVYSITAQSTFNDLQDLREQILRVKDTEDVPMILVGNKCDLEDERVVGKEQGQNLARQWCNCAFLESSAKSKINVNEIFYDLVRQINRKTPVEKKKPKKKSCLLL

Variants of: B1
Conditions: with braf_human BRAF

| effect of a mutation on the interaction | Variant |
| --- | --- |
| with no effect | R163T |

From IntAct's records for PubMed 26280580
